Test results published in paper PMC5638340 (PLoS ONE, 2017).

Target: T1, Extracellular domain (ECD) of the human neuronal α9 nAChR (human, UniProt Q9UGM1 23-238)
T1 construct: also called ECD of human α9 nAChR; water-soluble extracellular domain of human α9 nAChR; source: expressed, enzymatically deglycosylated and purified as described [26]
Assay: radioligand binding
Settings: both partners purified

T1 sequence (Q9UGM1 23-238): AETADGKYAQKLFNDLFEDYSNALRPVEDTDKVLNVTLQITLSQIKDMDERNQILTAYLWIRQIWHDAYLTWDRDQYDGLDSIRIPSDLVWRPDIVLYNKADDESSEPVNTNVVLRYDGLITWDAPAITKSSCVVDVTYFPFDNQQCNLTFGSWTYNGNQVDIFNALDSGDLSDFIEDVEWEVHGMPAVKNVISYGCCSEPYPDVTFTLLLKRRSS

B1: PLA2 from porcine pancreas (enzyme)
chain: not shown
notes: also called PP PLA2; porcine pancreatic PLA2
- IC50: 5.5 µM
